What is called IC50 is the concentration that inhibits the measured activity by half.

The target in the assay is Human tauP301L (0N4R), recombinant, N-terminal His tag (UniProt P10636 2-758). The experiment in a line: capping of pre-formed Tau P301L fibers, inhibition of seeding in HEK293 tau-RD-YFP cells.

Starred links: 1 amine or outer side, 2 acyl side, 3 side chain; linkers in the order of their positions; H or OH if unused. Non-standard residues stand in square brackets, D forms with d. Primed or numbered codes have the meaning given here. aTyr = Tyr with backbone N-amino (N-aminated amide nitrogen), NN([C@@H](Cc1ccc(O[*:3])cc1)C(=O)[*:2])[*:1]; aIle′ = Ile with backbone N-amino (N-aminated amide nitrogen), CC[C@H](C)[C@@H](C(=O)[*:2])N(N)[*:1]; aVal = Val with backbone N-amino (N-aminated amide nitrogen), CC(C)[C@@H](C(=O)[*:2])N(N)[*:1]; N(NH2)Lys = NCCCC[C@H](NN)C(=O)O

Chain of Human tauP301L (0N4R), recombinant, N-terminal His tag (P10636 other isoform, or with tags, fused parts or gaps): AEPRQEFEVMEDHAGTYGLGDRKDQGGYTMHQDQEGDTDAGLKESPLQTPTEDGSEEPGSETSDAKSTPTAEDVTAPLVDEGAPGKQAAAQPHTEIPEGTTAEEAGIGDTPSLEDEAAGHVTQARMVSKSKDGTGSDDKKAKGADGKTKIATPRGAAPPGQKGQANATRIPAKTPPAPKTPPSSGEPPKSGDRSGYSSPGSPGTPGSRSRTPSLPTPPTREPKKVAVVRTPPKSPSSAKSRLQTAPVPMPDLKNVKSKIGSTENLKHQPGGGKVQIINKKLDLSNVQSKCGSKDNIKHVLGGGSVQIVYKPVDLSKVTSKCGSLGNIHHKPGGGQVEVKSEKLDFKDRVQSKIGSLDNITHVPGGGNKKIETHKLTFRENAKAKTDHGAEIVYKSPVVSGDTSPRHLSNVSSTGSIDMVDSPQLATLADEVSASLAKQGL

B1: Compound 13, Ac-Val-Gln-Ile-aVal-Tyr-aLys-NH2 (peptide)
peptide: Ac-VQI[aVal]Y[N(NH2)Lys]-NH2
SMILES: CC[C@H](C)[C@H](NC(=O)[C@H](CCC(N)=O)NC(=O)[C@@H](NC(C)=O)C(C)C)C(=O)N(N)[C@H](C(=O)N[C@@H](Cc1ccc(O)cc1)C(=O)N(N)[C@@H](CCCCN)C(N)=O)C(C)C
On to B1, for which the IC50 turned out to be 4.7 µM.

B2: Compound 12, Ac-Val-Gln-aIle-Val-aTyr-Lys-NH2 (peptide)
peptide: Ac-VQ[aIle′]V[aTyr]K-NH2
SMILES: CC[C@H](C)[C@@H](C(=O)N[C@H](C(=O)N(N)[C@@H](Cc1ccc(O)cc1)C(=O)N[C@@H](CCCCN)C(N)=O)C(C)C)N(N)C(=O)[C@H](CCC(N)=O)NC(=O)[C@@H](NC(C)=O)C(C)C
Take B2: the IC50 is 4.8 µM.

B3: Compound 4, Ac-aVal-Gln-aIle-Ile-Asn-Lys-NH2 (peptide)
peptide: Ac-[aVal]Q[aIle′]INK-NH2
SMILES: CC[C@H](C)[C@H](NC(=O)[C@H]([C@@H](C)CC)N(N)C(=O)[C@H](CCC(N)=O)NC(=O)[C@H](C(C)C)N(N)C(C)=O)C(=O)N[C@@H](CC(N)=O)C(=O)N[C@@H](CCCCN)C(N)=O
For B3, the half-maximal inhibitory concentration (IC50) is greater than 20 µM.
